Holding throughout (assay): SAXS titration
Data set [1] deals with T1, HIV-1 integrase (IN), monomer E (HIV-1, UniProt P04585 1148-1435).
The target of data set [2] is T1, HIV-1 integrase (IN), monomer E. This is another data set of the same source.
Data set [3] has the same target. The source holds these as a separate data set.

Read-outs that look alike come from different tables or passages of the source.

The molecule AAAAA (ssDNA) [ss A5] returned a Kd in data set [1] of 2600 ± 400 nM. In data set [2], GTGTGGAAAATCTCTAGCAGT (ssDNA) [ss 21-GT] returned a dissociation constant (Kd) of 10.6 ± 10 nM. GCAGT (ssDNA) [ss GCAGT] had a dissociation constant (Kd) in data set [1] of 7100 ± 700 nM. As to GTGTGGAAAATCTCTAGCA (ssDNA) [ss 19-CA], in data set [3], binding was characterised by a dissociation constant (Kd) of 30 ± 15 nM.

As a reminder, the Kd is the constant that tells how readily two partners part at equilibrium. The low end stands for tighter binding, the high end for weaker binding.

The values above are taken from paper PMC1807944.
